# Data: the Immune Epitope Database (IEDB)
# Key:
# HLA-A*11:01 [1] = assay: IEDB peptide-MHC binding, purified MHC/competitive/fluorescence; ≥ and ≤ were set here for values at or beyond the usual limits of such assays; conditions: source organism: Variola virus
# HLA-B*15:17 = assay: IEDB peptide-MHC binding, purified MHC/competitive/fluorescence; filed as Kd, often an IC50 or EC50 that approximates it; ≥ and ≤ were set here for values at or beyond the usual limits of such assays
# HLA-B*35:01 = assay: as above; conditions: source organism: Vaccinia virus WR
# HLA-B*07:02 [2] = assay: as above; conditions: source organism: Vaccinia virus WR
# HLA-A*01:01 [3] = assay: as above; conditions: source organism: Vaccinia virus WR
# HLA-B*15:01 [4] = assay: as above; conditions: source organism: Vaccinia virus WR
# HLA-B*18:01 [5] = assay: as above; conditions: source organism: Vaccinia virus WR
# HLA-A*26:02 = assay: as above; conditions: source organism: Vaccinia virus WR
# HLA-B*58:01 = assay: IEDB peptide-MHC binding, purified MHC/direct/fluorescence; filed as Kd, often an IC50 or EC50 that approximates it; ≥ and ≤ were set here for values at or beyond the usual limits of such assays
# HLA-B*38:01 = assay: as above
# HLA-B*48:01 = assay: as above
# HLA-B*57:01 [6] = assay: as above; conditions: source organism: Camelpox virus M-96
# HLA-B*08:02 = assay: as above; conditions: source organism: Variola virus
# HLA-A*02:01 = assay: as above
# HLA-B*08:03 = assay: as above; conditions: source organism: Variola virus
# HLA-B*46:01 = assay: as above
# HLA-B*08:01 = assay: as above
# HLA-A*26:01 = assay: as above
# HLA-A*69:01 [7] = assay: as above
# HLA-B*27:05 = assay: as above
# HLA-A*68:02 = assay: as above; conditions: source organism: Camelpox virus M-96
# HLA-B*39:01 = assay: as above; conditions: source organism: Camelpox virus M-96
# HLA-B*40:01 = assay: as above
# HLA-B*44:02 = assay: as above; conditions: source organism: Giardia lamblia ATCC 50803
# HLA-A*03:01 [8] = assay: as above
# HLA-A*30:01 = assay: as above
# HLA-B*07:02 [9] = assay: as above
# HLA-A*11:01 [10] = assay: as above
# HLA-A*01:01 [11] = assay: as above
# HLA-B*15:01 [12] = assay: as above
# HLA-A*02:06 = assay: IEDB peptide-MHC binding, purified MHC/competitive/fluorescence; filed as Kd, often an IC50 or EC50 that approximates it; ≥ and ≤ were set here for values at or beyond the usual limits of such assays; conditions: source organism: Brucella melitensis bv. 1 str. Rev.1
# HLA-B*57:01 [13] = assay: as above; conditions: source organism: Brucella melitensis bv. 1 str. Rev.1
# HLA-A*69:01 [14] = assay: as above; conditions: source organism: Brucella melitensis bv. 1 str. Rev.1
# HLA-B*18:01 [15] = assay: IEDB peptide-MHC binding, purified MHC/direct/fluorescence; filed as Kd, often an IC50 or EC50 that approximates it; ≥ and ≤ were set here for values at or beyond the usual limits of such assays; conditions: source organism: Brucella abortus
# HLA-B*15:09 = assay: as above; conditions: source organism: Brucella suis ATCC 23445
# HLA-A*31:01 [16] = assay: as above
# HLA-A*24:03 = assay: as above; conditions: source organism: Corynebacterium glutamicum
# HLA-A*03:01 [17] = assay: IEDB peptide-MHC binding, purified MHC/competitive/fluorescence; filed as Kd, often an IC50 or EC50 that approximates it; ≥ and ≤ were set here for values at or beyond the usual limits of such assays; conditions: source organism: Escherichia coli F11
# HLA-A*32:15 = assay: as above; conditions: source organism: Escherichia coli F11
# HLA-A*68:23 = assay: as above; conditions: source organism: Escherichia coli F11
# HLA-B*83:01 = assay: as above; conditions: source organism: Escherichia coli F11
# HLA-B*45:06 = assay: as above; conditions: source organism: Escherichia coli F11
# HLA-B*15:42 = assay: as above; conditions: source organism: Escherichia coli F11
# HLA-A*31:01 [18] = assay: as above; conditions: source organism: Escherichia coli F11
# [19] = source organism: Camelpox virus M-96
# [20] = source organism: Giardia lamblia ATCC 50803
# [21] = source organism: Brucella abortus
# [22] = source organism: Brucella suis ATCC 23445
# [23] = source organism: Corynebacterium glutamicum
sequence,measurement,setting,value
IHIPGDTLF,IC50,HLA-A*11:01 [1],≥ 152 µM
same,Kd,HLA-B*15:17; source organism: Vaccinia virus WR,≥ 20 µM
same,Kd,HLA-B*35:01,0.366 µM
same,Kd,HLA-B*07:02 [2],≥ 5 µM
same,Kd,HLA-A*01:01 [3],≥ 20 µM
same,Kd,HLA-B*15:01 [4],≥ 20 µM
same,Kd,HLA-B*18:01 [5],≥ 20 µM
same,Kd,HLA-A*26:02,≥ 20 µM
same,Kd,HLA-B*58:01; [19],≥ 20 µM
same,Kd,HLA-B*38:01; source organism: Variola virus,0.392 µM
same,Kd,HLA-B*48:01; [19],≥ 20 µM
same,Kd,HLA-B*57:01 [6],≥ 20 µM
same,Kd,HLA-B*08:02,≥ 20 µM
same,Kd,HLA-A*02:01; [19],≥ 20 µM
same,Kd,HLA-B*08:03,≥ 20 µM
same,Kd,HLA-B*46:01; [19],≥ 20 µM
same,Kd,HLA-B*08:01; source organism: Variola virus,≥ 20 µM
same,Kd,HLA-A*26:01; source organism: Variola virus,≥ 20 µM
same,Kd,HLA-A*69:01 [7]; [19],≥ 20 µM
same,Kd,HLA-B*27:05; [19],≥ 20 µM
same,Kd,HLA-A*68:02,≥ 20 µM
same,Kd,HLA-B*39:01,≥ 20 µM
same,Kd,HLA-B*40:01; [19],≥ 20 µM
ASSWAPTQK,Kd,HLA-B*58:01; [20],≥ 20 µM
same,Kd,HLA-B*44:02,≥ 20 µM
same,Kd,HLA-A*03:01 [8]; [20],0.51 µM
same,Kd,HLA-A*30:01; [20],4.14 µM
same,Kd,HLA-A*02:01; [20],≥ 20 µM
same,Kd,HLA-B*08:01; [20],≥ 20 µM
same,Kd,HLA-A*26:01; [20],≥ 20 µM
same,Kd,HLA-B*07:02 [9]; [20],≥ 20 µM
same,Kd,HLA-A*11:01 [10]; [20],0.0175 µM
same,Kd,HLA-A*01:01 [11]; [20],≥ 20 µM
same,Kd,HLA-A*69:01 [7]; [20],≥ 20 µM
same,Kd,HLA-B*15:01 [12]; [20],≥ 20 µM
same,Kd,HLA-B*27:05; [20],≥ 20 µM
same,Kd,HLA-B*40:01; [20],≥ 20 µM
FSDVSHWWQ,Kd,HLA-A*02:06,≥ 20 µM
same,Kd,HLA-B*15:17; source organism: Brucella melitensis bv. 1 str. Rev.1,≥ 20 µM
same,Kd,HLA-B*57:01 [13],≥ 20 µM
same,Kd,HLA-A*69:01 [14],≥ 20 µM
same,Kd,HLA-B*58:01; [21],2.09 µM
same,Kd,HLA-B*38:01; [22],≥ 20 µM
same,Kd,HLA-B*48:01; [21],≥ 20 µM
same,Kd,HLA-A*03:01 [8]; [21],≥ 20 µM
same,Kd,HLA-A*02:01; [21],≥ 20 µM
same,Kd,HLA-B*46:01; [21],≥ 20 µM
same,Kd,HLA-B*08:01; [22],≥ 20 µM
same,Kd,HLA-A*26:01; [22],≥ 20 µM
same,Kd,HLA-B*07:02 [9]; [21],≥ 20 µM
same,Kd,HLA-A*11:01 [10]; [21],≥ 20 µM
same,Kd,HLA-A*01:01 [11]; [21],0.404 µM
same,Kd,HLA-B*15:01 [12]; [21],≥ 20 µM
same,Kd,HLA-B*27:05; [21],≥ 20 µM
same,Kd,HLA-B*18:01 [15],≥ 20 µM
same,Kd,HLA-B*15:09,≥ 20 µM
same,Kd,HLA-A*31:01 [16]; [21],≥ 20 µM
same,Kd,HLA-B*40:01; [21],≥ 20 µM
VHDREGNEV,Kd,HLA-B*58:01; [23],≥ 20 µM
same,Kd,HLA-A*03:01 [8]; [23],≥ 20 µM
same,Kd,HLA-A*30:01; [23],4.84 µM
same,Kd,HLA-A*24:03,≥ 20 µM
same,Kd,HLA-A*02:01; [23],≥ 20 µM
same,Kd,HLA-B*08:01; [23],≥ 20 µM
same,Kd,HLA-A*26:01; [23],≥ 20 µM
same,Kd,HLA-A*11:01 [10]; [23],≥ 20 µM
same,Kd,HLA-A*01:01 [11]; [23],≥ 20 µM
same,Kd,HLA-A*69:01 [7]; [23],≥ 20 µM
same,Kd,HLA-B*15:01 [12]; [23],≥ 20 µM
same,Kd,HLA-B*27:05; [23],≥ 20 µM
same,Kd,HLA-A*31:01 [16]; [23],≥ 20 µM
same,Kd,HLA-B*40:01; [23],≥ 20 µM
MTYSHHACR,Kd,HLA-A*03:01 [17],0.078 µM
same,Kd,HLA-A*32:15,0.824 µM
same,Kd,HLA-A*68:23,0.0002 µM
same,Kd,HLA-B*83:01,≥ 5 µM
same,Kd,HLA-B*45:06,≥ 5 µM
same,Kd,HLA-B*15:42,≥ 5 µM
same,Kd,HLA-A*31:01 [18],0.0183 µM
